{
  "source": "paper PMC7033311",
  "about": "“The Eaf3 chromodomain acts as a pH sensor for gene expression by altering its binding affinity for histone methylated-lysine residues” (Bioscience Reports, 2020)",
  "molecules": {"B1": {"name": "Eaf3 chromodomain (Eaf3 CD; essential Sas2-related acetyltransferase 1-associated factor 3) (Saccharomyces cerevisiae) (protein)", "chain": "MVDLEQEFALGGRCLAFHGPLMYEAKILKIWDPSSKMYTSIPNDKPGGSSQATKEIKPQKLGEDESIPEEIINGKCFFIHYQGWKSSWDEWVGYDRIRAYNEENIAMKKRLANEAKEAKK"}, "B2": {"name": "Eaf3 chromodomain (residues 1-120) G19A (domain or fragment, Saccharomyces cerevisiae, UniProt Q12432 1-120, looked up)", "chain": "B1 chain with G19A", "notes": "Eaf3, Saccharomyces cerevisiae, chromodomain, residues 1-120; source: E. coli BL21(DE3)pLysS, purified (Ni-NTA, thrombin, Ni-NTA, Superdex75)"}, "B3": {"name": "Eaf3 chromodomain (residues 1-120) Y23A (domain or fragment, Saccharomyces cerevisiae, UniProt Q12432 1-120, looked up)", "chain": "B1 chain with Y23A", "notes": "as for B2"}, "B4": {"name": "Eaf3 CD: chromodomain (residues 1−120) of budding yeast Eaf3 (protein)", "chain": "B1 chain", "modifications": "left off: His6, end not stated, cleaved", "notes": "chromodomain (residues 1−120) of budding yeast Eaf3"}, "B5": {"name": "Eaf3 chromodomain (Eaf3 CD; essential Sas2-related acetyltransferase1-associated factor 3) (Saccharomyces cerevisiae) (protein)", "chain": "B1 chain"}, "B6": {"name": "Histone H3 peptide trimethylated at Lys36 (H3K36me3) (peptide)", "peptide": "SAPSTGGVK(me3)KPHRYKPGT", "notes": "histone H3; source: synthetic peptide (bought: Qiagen and SIGMA Genosys)"}, "B7": {"name": "histone H3 peptide H3T3phoK4me3, titration peptide (printed in Table 1 as H3T3phoK3me3) (peptide)", "chain": "AR[pT][Lys(Me3)]QTARKSTGGKAPRY"}, "B8": {"name": "histone H3 peptide H3K4me2, titration peptide (peptide)", "chain": "ART[Lys(Me2)]QTARKSTGGKAPRY"}, "B9": {"name": "Histone H3 peptide dimethylated at Lys36 (H3K36me2), 18 residues (peptide)", "peptide": "SAPSTGGVK(me2)KPHRYKPGT", "notes": "as for B6"}},
  "key": {"Eaf3 CD Y23A": {"molecular_target": "Eaf3 CD Y23A (Saccharomyces cerevisiae, UniProt Q12432, Y23A)", "sequence (Q12432 1-120 Y23A limits assumed)": "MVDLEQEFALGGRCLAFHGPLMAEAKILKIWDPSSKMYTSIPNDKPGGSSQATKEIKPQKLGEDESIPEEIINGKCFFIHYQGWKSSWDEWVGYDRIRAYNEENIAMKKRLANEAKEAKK", "format": "binding", "details": "pH 6.8"}, "Eaf3 CD Y81A": {"molecular_target": "Eaf3 CD Y81A (Saccharomyces cerevisiae, UniProt Q12432, Y81A)", "sequence (Q12432 1-120 Y81A limits assumed)": "as the sequence (Q12432 1-120 Y23A limits assumed) above, with A23Y, Y81A counted along it", "format": "binding", "details": "pH 6.8"}, "Eaf3 CD W84A": {"molecular_target": "Eaf3 CD W84A (Saccharomyces cerevisiae, UniProt Q12432, W84A)", "sequence (Q12432 1-120 W84A limits assumed)": "as the sequence (Q12432 1-120 Y23A limits assumed) above, with A23Y, W84A counted along it", "format": "binding", "details": "pH 6.8"}, "Eaf3 CD W88A": {"molecular_target": "Eaf3 CD W88A (Saccharomyces cerevisiae, UniProt Q12432, W88A)", "sequence (Q12432 1-120 W88A limits assumed)": "as the sequence (Q12432 1-120 Y23A limits assumed) above, with A23Y, W88A counted along it", "format": "binding", "details": "pH 6.8"}, "Eaf3 CD (wild-type)": {"molecular_target": "Eaf3 CD (wild-type) (Saccharomyces cerevisiae, UniProt Q12432)", "assay": "biochemical", "format": "binding"}, "[1]": {"molecular_target": "Histone H3 peptide trimethylated at Lys36 (H3K36me3) none (post-translational modification: K36me3) (UniProt P61830)", "assay": "NMR titration (1H,15N-HSQC chemical shift perturbation), Bruker AVANCE-600", "details": "25°C, 20 mM NaCl (given for pH 6.8 and in the pH 8.5 Tris buffer; the wording leaves open whether NaCl was also present at pH 5.2, 6.0 and 7.5), pH 5.2: 10 mM sodium acetate, pH 6.0 and 7.5: 10 mM potassium phosphate, pH 6.8: 10 mM potassium phosphate, pH 8.5: 10 m"}, "[2]": {"molecular_target": "Histone H3 peptide trimethylated at Lys36 (H3K36me3) none (post-translational modification: K36me3) (UniProt P61830)", "assay": "NMR pH titration of the free protein (series of 1H,15N-HSQC spectra; His side-chain Hδ2, Hε1, Nδ1, Nε2 and main-chain N shifts)", "details": "pH 5.2-10.5; 25°C"}, "[3]": {"molecular_target": "His18 (UniProt position 18, …)", "assay": "NMR", "details": "25 °C, free (no histone peptide), folded"}, "[4]": {"molecular_target": "the molecule itself", "assay": "SEC; size exclusion chromatograms of wild-type and mutant Eaf3 CD (Superdex75 in the purification); peaks marked D: dimer, M: monomer"}, "[5]": {"assay": "NMR pH titration of histidine residues (pKa)", "format": "physicochemical", "method": "A series of ^1H,^15N-HSQC spectra for 0.1–1.1 mM ^15N-labeled Eaf3 CD were recorded at different pH ranging from 5.2 to 10.5 at 25°C on a Bruker AVANCE-600 spectrometer equipped with a cryogenic probe. The observed chemical shift (δobs) was plotted as a function of pH. pKa values were calculated by a nonlinear least-squares fit of the pH titration curves using the following equation, δobs=[δl+δh×10^(pH-pKa)]/[1+10^(pH-pKa)], where δl and δh represent the chemical shift values at extreme low and high pH, respectively."}, "[6]": {"molecular_target": "T1, Eaf3 chromodomain (residues 1-120), wild type (Saccharomyces cerevisiae)", "T1 construct": "Eaf3, Saccharomyces cerevisiae (budding yeast), chromodomain, residues 1-120; 15N-labelled for the NMR titrations; also called Eaf3 CD; WT; source: E. coli BL21(DE3)pLysS, purified (Ni-NTA, thrombin, Ni-NTA, Superdex75)", "T1 chain": "B1 chain", "assay": "NMR titration; 0.1 mM 15N-labeled Eaf3 CD titrated with unlabeled histone H3 peptide; 1H,15N-HSQC; 10 mM potassium phosphate pH 6.8, 20 mM NaCl, 5 mM deuterated DTT, 25°C; Kd from the titration curves of Ala25", "details": "both partners purified"}, "[7]": {"molecular_target": "T2, Eaf3 chromodomain (Eaf3 CD, residues 1-120), wild type (S. cerevisiae, UniProt Q12432 1-120)", "T2 construct": "Eaf3 chromodomain (CD), budding yeast (S. cerevisiae), residues 1-120; 15N-labelled for the NMR experiments; expressed from pET15b; also called WT Eaf3 CD; source: E. coli BL21(DE3)pLysS, purified (Ni-NTA, thrombin, Ni-NTA flow-through, Superdex75)", "T2 sequence (looked up)": "B1 chain", "assay": "NMR titration; 0.1 mM 15N-labelled WT or mutant Eaf3 CD titrated with unlabelled histone H3 peptide up to 1:88; 10 mM potassium phosphate pH 6.8, 20 mM NaCl, 5 mM DTT, 25°C; Kd by nonlinear fit of chemical shift change", "details": "both partners purified"}},
  "note": "Substitutions are numbered along the chain they refer to. Read-outs that look alike come from different tables or passages of the source. Where no end group is shown, it is not given here. [ ]: non-standard residue; d: D form. me2 = dimethylated (di-methylated lysine); Lys(Me3) = C[N+](C)(C)CCCC[C@H](N)C(=O)O; pT = C[C@@H](OP(=O)(O)O)[C@H](N)C(=O)O; Lys(Me2) = CN(C)CCCC[C@H](N)C(=O)O",
  "data": [
    {"molecule": "C[C@H](N)C(=O)N[C@@H](CCCNC(=N)N)C(=O)N[C@H](C(=O)N[C@@H](CCCC[N+](C)(C)C)C(=O)N[C@@H](CCC(N)=O)C(=O)N[C@H](C(=O)N[C@@H](C)C(=O)N[C@@H](CCCNC(=N)N)C(=O)N[C@@H](CCCCN)C(=O)N[C@@H](CO)C(=O)N[C@H](C(=O)NCC(=O)NCC(=O)N[C@@H](CCCCN)C(=O)N[C@@H](C)C(=O)N1CCC[C@H]1C(=O)N[C@@H](CCCNC(=N)N)C(=O)N[C@@H](Cc1ccc(O)cc1)C(=O)O)[C@@H](C)O)[C@@H](C)O)[C@@H](C)O", "note": "[H3K4me3]", "values": [
      {"measurement": "Dissociation constant (Kd)", "setting": "Eaf3 CD Y23A", "value": "N.B."},
      {"measurement": "Dissociation constant (Kd)", "setting": "Eaf3 CD Y81A", "value": "N.B."},
      {"measurement": "Dissociation constant (Kd)", "setting": "Eaf3 CD W84A", "value": "N.B."},
      {"measurement": "Dissociation constant (Kd)", "setting": "Eaf3 CD W88A", "value": "N.B."}
    ]},
    {"molecule": "C[C@H](N)C(=O)N[C@@H](CCCNC(=N)N(C)C)C(=O)N[C@H](C(=O)N[C@@H](CCCC[N+](C)(C)C)C(=O)N[C@@H](CCC(N)=O)C(=O)N[C@H](C(=O)N[C@@H](C)C(=O)N[C@@H](CCCNC(=N)N)C(=O)N[C@@H](CCCCN)C(=O)N[C@@H](CO)C(=O)N[C@H](C(=O)NCC(=O)NCC(=O)N[C@@H](CCCCN)C(=O)N[C@@H](C)C(=O)N1CCC[C@H]1C(=O)N[C@@H](CCCNC(=N)N)C(=O)N[C@@H](Cc1ccc(O)cc1)C(=O)O)[C@@H](C)O)[C@@H](C)O)[C@@H](C)O", "note": "[H3R2ame2K4me3]", "values": [
      {"measurement": "Dissociation constant (Kd)", "setting": "Eaf3 CD Y23A", "value": "N.B."},
      {"measurement": "Dissociation constant (Kd)", "setting": "Eaf3 CD Y81A", "value": "N.B."},
      {"measurement": "Dissociation constant (Kd)", "setting": "Eaf3 CD W84A", "value": "N.B."},
      {"measurement": "Dissociation constant (Kd)", "setting": "Eaf3 CD W88A", "value": "N.B."}
    ]},
    {"molecule": "C[N+](C)(C)CCCC[C@H](N)C(=O)O", "note": "[Kme3, tri-methyl-lysine]", "values": [
      {"measurement": "Kd", "setting": "Eaf3 CD (wild-type)", "value": "4.44 ± 0.23", "unit": "mM"}
    ]},
    {"molecule": "CN(C)C(N)=NCCC[C@H](N)C(=O)O", "note": "[Rame2, asymmetrically di-methylated arginine]", "values": [
      {"measurement": "Kd", "setting": "Eaf3 CD (wild-type); pH 6.8, read-out: Dissociation constant (Kd)", "value": "> 10", "unit": "mM"}
    ]},
    {"molecule": "Eaf3 chromodomain (Eaf3 CD), wild type", "values": [
      {"measurement": "fold change of binding (relative to pH 6.8)", "setting": "[1]; pH 6.0-6.8", "value": "weakened 2.3-fold on going from pH 6.8 to 6.0"},
      {"measurement": "fold change of binding (relative to pH 6.8)", "setting": "[1]; pH 6.8-7.5", "value": "enhanced 2.2-fold on going from pH 6.8 to 7.5"},
      {"measurement": "fold change of binding", "setting": "[1]; pH 8.5", "value": "enhanced a further 3.6-fold at pH 8.5"},
      {"measurement": "pKa, His18 of Eaf3 CD", "setting": "[2]", "value": "approximately 6.8"}
    ]},
    {"molecule": "Eaf3 chromodomain H18A H18A", "values": [
      {"measurement": "fold change of binding (relative to pH 6.8)", "setting": "[1]; pH 5.2", "value": "decreased by 1.9-fold at pH 5.2"},
      {"measurement": "fold change of binding (H18A relative to WT)", "setting": "[1]; pH 6.8", "value": "2.9-fold stronger binding than WT at pH 6.8"},
      {"measurement": "fold change of binding (relative to pH 6.8)", "setting": "[1]; pH 8.5", "value": "slightly enhanced by a factor of 1.2-fold at pH 8.5"}
    ]},
    {"molecule": "Eaf3 chromodomain H18D H18D", "values": [
      {"measurement": "fold change of binding (H18D relative to WT)", "setting": "[1]; pH 6.8", "value": "11.7-fold increase relative to WT at pH 6.8"}
    ]},
    {"molecule": "B1", "values": [
      {"measurement": "pKa", "setting": "[3]; not stated for the pH titration, the authors state that the pH changes did not disrupt the structure", "value": "approximately 6.8"}
    ]},
    {"molecule": "B2", "values": [
      {"measurement": "stoichiometry N", "setting": "[4]", "value": 2}
    ]},
    {"molecule": "B3", "values": [
      {"measurement": "stoichiometry N", "setting": "[4]", "value": 2}
    ]},
    {"molecule": "B4", "values": [
      {"measurement": "observed pKa value of His18", "setting": "[5]; NMR pH titration, 25°C, overall", "value": "approximately 6.8"},
      {"measurement": "fraction of Eaf3 CD molecules with protonated His18", "setting": "[5]; at pH 5.2", "value": "almost all"},
      {"measurement": "fraction of Eaf3 CD molecules protonated at His18", "setting": "[5]; at physiological pH of 6.8", "value": "almost half"}
    ]},
    {"molecule": "B5", "values": [
      {"measurement": "pKa", "setting": "[3]; the authors state that the pH changes caused no disruption of structure", "value": 6.47}
    ]},
    {"molecule": "B6", "values": [
      {"measurement": "Kd", "setting": "[6]", "value": "1.94 ± 0.094", "unit": "mM"}
    ]},
    {"molecule": "B7", "values": [
      {"measurement": "Kd", "setting": "[7]", "value": "6.52 ± 0.48", "unit": "mM"}
    ]},
    {"molecule": "B8", "values": [
      {"measurement": "Kd", "setting": "[7]", "value": "4.04 ± 0.11", "unit": "mM"}
    ]},
    {"molecule": "B9", "values": [
      {"measurement": "Kd", "setting": "[6]", "value": "4.41 ± 0.908", "unit": "mM"}
    ]}
  ]
}
